Patent publication US20200024331A1 (published 2020)

Columns and labels:
[1] = molecular target: Chikungunya virus E1 protein (Chikungunya virus, UniProt Q8JUX5 810-1224); test: SPR
[2] = molecular target: Chikungunya virus-like particles (CHIKV VLP) (Chikungunya virus, UniProt Q8JUX5 810-1248; Q8JUX5 326-748); test: SPR
Sequence of Chikungunya virus-like particles (CHIKV VLP) (Q8JUX5 810-1248, chain 1 of 2): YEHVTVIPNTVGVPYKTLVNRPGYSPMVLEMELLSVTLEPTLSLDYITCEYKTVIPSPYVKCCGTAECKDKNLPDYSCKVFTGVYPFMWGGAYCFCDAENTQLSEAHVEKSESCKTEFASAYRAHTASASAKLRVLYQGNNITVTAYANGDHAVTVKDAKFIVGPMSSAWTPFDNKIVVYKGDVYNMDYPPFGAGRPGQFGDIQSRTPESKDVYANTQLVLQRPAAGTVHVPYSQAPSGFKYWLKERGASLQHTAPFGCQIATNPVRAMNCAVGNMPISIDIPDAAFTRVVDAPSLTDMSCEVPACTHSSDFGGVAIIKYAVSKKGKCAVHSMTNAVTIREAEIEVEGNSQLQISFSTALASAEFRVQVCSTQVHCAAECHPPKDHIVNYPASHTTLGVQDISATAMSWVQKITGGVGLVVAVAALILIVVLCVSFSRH
Sequence of Chikungunya virus-like particles (CHIKV VLP) (Q8JUX5 326-748, chain 2 of 2): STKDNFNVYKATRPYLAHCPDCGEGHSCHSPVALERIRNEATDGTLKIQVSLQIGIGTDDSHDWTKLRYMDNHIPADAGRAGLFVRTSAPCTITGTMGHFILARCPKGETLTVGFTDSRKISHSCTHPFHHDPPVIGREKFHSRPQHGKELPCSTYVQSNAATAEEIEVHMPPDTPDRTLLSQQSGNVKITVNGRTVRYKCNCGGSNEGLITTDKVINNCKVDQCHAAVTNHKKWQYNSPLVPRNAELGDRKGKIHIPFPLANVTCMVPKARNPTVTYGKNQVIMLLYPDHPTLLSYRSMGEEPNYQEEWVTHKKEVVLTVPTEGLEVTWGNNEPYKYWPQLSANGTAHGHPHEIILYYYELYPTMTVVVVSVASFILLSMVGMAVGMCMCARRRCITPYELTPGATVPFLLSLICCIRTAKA

Sequence of Chikungunya virus E1 protein (Q8JUX5 810-1224): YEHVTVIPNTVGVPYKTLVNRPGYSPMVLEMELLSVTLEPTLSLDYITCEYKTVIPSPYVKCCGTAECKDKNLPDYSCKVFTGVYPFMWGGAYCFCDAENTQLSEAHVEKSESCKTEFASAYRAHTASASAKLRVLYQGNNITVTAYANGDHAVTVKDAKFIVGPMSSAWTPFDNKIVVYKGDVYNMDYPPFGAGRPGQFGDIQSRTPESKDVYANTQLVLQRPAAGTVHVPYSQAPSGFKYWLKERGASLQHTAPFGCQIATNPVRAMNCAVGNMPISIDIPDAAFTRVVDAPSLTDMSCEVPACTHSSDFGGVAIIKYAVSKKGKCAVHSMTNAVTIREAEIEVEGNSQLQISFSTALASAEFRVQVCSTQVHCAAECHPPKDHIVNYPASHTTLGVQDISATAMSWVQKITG

B1: CC3 (VHH)
VHH: EVQLQASGGGSVQAGGSLRLSCVTSQNLFEYYTMGWYRQVPGSQRERVALINNGGSTVAGSVEGRFTISRDHAKNSVYLQMNYLKPEDSAVYYCRAFGPADYWGQGTQVTVSS
Kd [1]: 3.04 nM | Kd [2]: 1.2 nM

B2: CA6 (VHH)
VHH: EVQLQASGGGLVRPGGSLRLSCAASGSFFTIDTMAWYRQAPGRRRELVARQSSGRSPDYDDSVVGRFTISRDIAKSSVYLQMDSLQPEDTALYYCYQSIRPWPGSSYEAHWGQGIQVIVSS
Kd [1]: 0.132 nM
